The values that follow come from US20210355166A1, “[…] METHODS OF USE THEREOF” (priority 2018, published 2021).

In assay [1] the test system is C57BL/6 mice. The experiment in a line: Nociception (analgesia) testing on 54 C hotplate. Particulars: 54° C. hotplate, s.c. Type of assay: in vivo, mouse. The protocol: Experiments were performed under the guidelines of the Australian code of practice for the care and use of animals for scientific purposes (National Health and Medical Research Council, Australia, 7th Edition). Great care was taken to minimise animal suffering during these experiments and to reduce the number of animals used. […] Food and water was available ad libitum. Mice were given at least 7 days to habituate to housing facilities prior to handling, and handled by the experimenter for 4 days prior to testing. […] The experimenter was blind to all drugs tested. Animals were tested on a 54° C. hotplate, with a maximum cut-off time of 20 seconds to prevent tissue damage. Endpoints were hindpaw lick, hindpaw flutter or jump. […] The percentage of maximal possible effects (% MPE) were calculated as follows: % MPE=(test latency−baseline latency)/(cutoff latency−baseline latency)×100%. The cut-off latency was 20 seconds. Significant differences were assessed with a two-way ANOVA and Tukey's post hoc multiple comparisons test. […] Doses were transformed to the logarithm of μmol/kg. A two-way ANOVA was used to compare data at equimolar doses.

The target in assay [2] is T1, human MOPr (hMOPr) (Homo sapiens, UniProt P35372).
T1 construct: expressed in transfected cells; host or cells: HEK cells
Nature of the assay: Inhibition of forskolin induced cAMP formation in HEK cells expressing hMOPr. Type of assay: cell-based. Particulars: for TetraQ, initial screen % inhibition of forskolin-stimulate cAMP formation in hMOPr HEK cells: 10 um; for activity in cAMP screen: 10 μM. As to the method: Procedure for measuring the level of intracellular cAMP produced upon modulation of adenylate cyclase activity by G-protein-coupled receptors (GPCRs). To test the functional interaction between opioids, and opioid-like compounds, and specific opioid GPCRs by measuring changes in intracellular cAMP levels relative to basal levels. The assay can measure agonist and antagonist activity on GPCRs by stimulating cells to either increase or decrease intracellular cAMP levels.
The assay is performed in a 384-well plate and each data point is performed in triplicate. The test compounds should be analyzed on the same plate as controls and cAMP standards. The number of compounds to be screened for activity will determine the volume of reagents and cells required for each experiment. The test compounds, controls and cAMP standards can be added to the plate in advance or while the cells are incubating with stimulation buffer. The plate should be sealed with TopSeal adhesive sealing film to avoid evaporation.
Assay background: Detection of cAMP is based on the competition between intracellular cAMP and biotinylated cAMP linked streptavidin-coated donor beads for anti-cAMP conjugated acceptor beads. When the donor and acceptor beads are in close proximity a signal emitted at 520-620 nm is detected using the Envision multilabel plate reader.
Preparation of test peptides: Test peptides are typically tested at a final concentration of 10 μM. As most test peptides are dissolved in 100% DMSO it is recommended that the DMSO concentration is limited to 2% v/v during cell stimulation to ensure maximum cell viability and responsiveness. Prepare 1 mM and 100 μM stock solutions of test peptides in an appropriate diluent and store at 4° C. For a library of peptides this can be performed in 96 well plates sealed with silicon sealing mats. Test peptides are diluted fresh from stock solutions to a working concentration in stimulation buffer with forskolin. It should be noted that as peptides are diluted 1:1 with cells in the assay the working concentration should be twice the final required concentration. It may be necessary to perform assays on compounds freshly diluted from DMSO stocks compounds to avoid experimental variability.
Preparation of cells: For best results cells should be low passage at 70-90% confluence. To prepare cells for the assay remove growth medium, add Versene and then incubate at 37° C. for approximately 5 minutes to allow cells to detach from the tissue culture plastic. Collect cells and centrifuge for 2 minutes at 275×g. Decant the supernatant and resuspend the cell pellet in 1×PBS. Determine the cell concentration using a haemocytometer. Re-centrifuge cells for 2 minutes at 275×g and decant supernatant. Resuspend cells in stimulation buffer to a final concentration of 1-4×10^4 cells per ml. Note that the cells number will influence the cAMP levels prevailing before (basal) and after adenylate cyclase activation. A cell titration should be performed to optimize the difference between basal and stimulation levels of cAMP. Cells are incubated in stimulation buffer for 20 to 30 minutes at 37° C. prior to adding 5 μl to wells containing test and control compounds. Note that cells are not added to the cAMP standards.
1. Add standards (10 μl/well), control compounds (5 μl/well) and test peptides (5 μl/well) into 384-well plates and seal with Top Seal adhesive sealing film. Leave at room temperature until the cell incubation is complete. 2. Add 5 μl cells incubated in stimulation buffer to the wells containing test peptides and control compounds, but not to the standards. Incubate cells and compounds for 30 min at 37° C. 3. Add 10 μl lysis buffer per well. 4. Under subdued lighting add 5 μl acceptor bead solution to each well. Wrap plate in foil and incubate at room temperature with gentle mixing on an orbital shaker for 60 min. 5. […]
(In general: cAMP levels reflect the balance of adenylyl cyclase and phosphodiesterase activity.)

Assay [3] has as its target T2, human µ-opioid receptor (hMOPr), human recombinant MOPr expressed in HEK-293 cells (human, UniProt P35372 1-400). Nature of the assay: cell-based or functional assay.
Assay [4] concerns the target T2, human µ-opioid receptor (hMOPr), human …. The experiment in a line: competition with [3H]DAMGO (0.5 nM), membranes with human recombinant MOPr (HEK-293), filtration and scintillation counting. The protocol: The specific ligand binding to the receptors is defined as the difference between the total binding and the nonspecific binding determined in the presence of an excess of an unlabelled opioid ligand (naloxone, 10 μM). The results are expressed as a percent of control specific binding ((measured specific binding/control specific binding)×100) obtained in the presence of unlabelled peptides of interest. The IC₅₀ values (concentration causing a half-maximal inhibition of control specific binding) and Hill coefficients (nH) were determined by non-linear regression analysis of the competition curves generated with mean replicate values using Hill equation curve fitting (Y=D+[(A−D)/(1+(C/C₅₀nH)], where Y=specific binding, D=minimum specific binding, A=maximum specific binding, C=compound concentration, C₅₀=IC₅₀, and nH=slope factor).

Non-standard residues stand in square brackets, D forms with d. Residues, ends and D or L forms follow the SMILES beside them. No end group written: not given here. *: point of attachment. βGlc = OC[C@H]1O[C@@H](*)[C@H](O)[C@@H](O)[C@@H]1O; Dmt = Cc1cc(O)cc(C)c1C[C@H](N)C(=O)O

T1 sequence (P35372 whole entry): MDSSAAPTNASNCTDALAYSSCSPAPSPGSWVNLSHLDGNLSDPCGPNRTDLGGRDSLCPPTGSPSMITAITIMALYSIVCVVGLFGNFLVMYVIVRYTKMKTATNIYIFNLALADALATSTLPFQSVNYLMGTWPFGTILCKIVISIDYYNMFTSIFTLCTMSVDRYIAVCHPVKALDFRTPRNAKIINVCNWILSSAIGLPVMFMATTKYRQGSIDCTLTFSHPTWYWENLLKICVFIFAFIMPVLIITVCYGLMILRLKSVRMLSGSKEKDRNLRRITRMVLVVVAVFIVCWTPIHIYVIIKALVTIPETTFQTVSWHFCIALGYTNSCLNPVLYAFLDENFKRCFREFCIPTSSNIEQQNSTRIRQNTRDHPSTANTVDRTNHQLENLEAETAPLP
T2 sequence (P35372 whole entry): as above

For the molecule “2,6-dimethyl-L-tyrosine-D-Val-L-Val-D-Phe-L-Ser(β-D-Glc)-NH2 ([Dmt][dV]V[dF]S(βGlc)-NH2; N-terminus assumed; SMILES Cc1cc(O)cc(C)c1C[C@H](N)C(=O)N[C@@H](C(=O)N[C@H](C(=O)N[C@H](Cc1ccccc1)C(=O)N[C@@H](CO[C@@H]1O[C@H](CO)[C@@H](O)[C@H](O)[C@H]1O)C(N)=O)C(C)C)C(C)C) [peptide 3h]”, in assay [1], the “analgesic activity after systemic administration” value is “systemically inactive”.

As for H-FVvf-NH2 [1g], in assay [2], the “TetraQ, initial screen % inhibition of forskolin-stimulate cAMP formation in hMOPr HEK cells” value (“TetraQ, initial screen % inhibition” for short) is given as 0%. As to H-FVvf-OH [1c], in assay [2], the “activity in cAMP screen” value was “inactive” and the “TetraQ, initial screen % inhibition” value came out at 0%. Consider H-FVVY-NH2 [2c], for which the “TetraQ, initial screen % inhibition” value in assay [2] came to 0%.

As for H-FvVy-NH2 [2b], in assay [2], the “activity in cAMP screen” value was “Neither Bilaid B (2a) nor its C-terminal carboxamide analogue (2b) showed activity” and the “TetraQ, initial screen % inhibition” value is given as 0%. In the case of H-fVvF-NH2 [1f], the “TetraQ, initial screen % inhibition” value in assay [2] came to 0%. As for “H-FGGy-NH2 (H-FGG[dY]-NH2; SMILES NC(=O)[C@@H](Cc1ccc(O)cc1)NC(=O)CNC(=O)CNC(=O)[C@@H](N)Cc1ccccc1) [2f]”, the “TetraQ, initial screen % inhibition” value in assay [2] is reported as 0%. Turning to H-fVvF-OH [1b], in assay [2], the “activity in cAMP screen” value was “inactive” and the “TetraQ, initial screen % inhibition” value is listed as 0%. On to `CC(C)[C@@H](NC(=O)[C@@H](N)Cc1ccccc1)C(=O)NCC(=O)N[C@H](Cc1ccc(O)cc1)C(N)=O` [peptide 2d, L-Phe-D-Val-Gly-D-Tyr-NH2] (H-F[dV]G[dY]-NH2), for which, in assay [2], the “TetraQ, initial screen % inhibition” value was determined as 31%. Take “H-FGVy-NH2 (H-FGV[dY]-NH2; SMILES CC(C)[C@H](NC(=O)CNC(=O)[C@@H](N)Cc1ccccc1)C(=O)N[C@H](Cc1ccc(O)cc1)C(N)=O) [2e]”: in assay [2], the “TetraQ, initial screen % inhibition” value came to 0%. Still for that read-out and setting: to H-fvVF-OH [1d] belongs 0%. `CC(C)[C@H](NC(=O)[C@H](NC(=O)[C@@H](N)Cc1ccccc1)C(C)C)C(=O)N[C@H](Cc1ccccc1)C(=O)O` [peptide 1a, L-Phe-D-Val-L-Val-D-Phe] (H-F[dV]V[dF]-OH): in assay [2], the “activity in cAMP screen” value is listed as “showed activity” and the “TetraQ, initial screen % inhibition” value turned out to be 21%. As for `CC(C)[C@H](NC(=O)[C@H](NC(=O)[C@@H](N)Cc1ccc(O)cc1)C(C)C)C(=O)N[C@H](Cc1ccccc1)C(=O)O` [peptide 3a, L-Tyr-D-Val-L-Val-D-Phe], the “activity in cAMP screen” value in assay [2] is given as “showed activity”. With `C[C@@H](NC(=O)[C@@H](N)Cc1ccc(O)cc1)C(=O)NCC(=O)N(C)[C@@H](Cc1ccccc1)C(=O)NCCO` [DAMGO, [D-Ala^2, N-MePhe^4, Gly^5-ol]-enkephalin, reference compound], in assay [2], the “TetraQ, initial screen % inhibition” value was “DAMGO = 94%)”. On to “H-FvVy-OH (H-F[dV]V[dY]-OH; SMILES CC(C)[C@H](NC(=O)[C@H](NC(=O)[C@@H](N)Cc1ccccc1)C(C)C)C(=O)N[C@H](Cc1ccc(O)cc1)C(=O)O) [2a]”, for which, in assay [2], the “activity in cAMP screen” value was “Neither Bilaid B (2a) nor its C-terminal carboxamide analogue (2b) showed activity” and the “TetraQ, initial screen % inhibition” value is 0%.

B1: H-FVVY-NH2 (peptide)
peptide: H-FVVY-NH2
Consider B1, for which, in assay [3], the “% inhibition of forskolin-stimulate cAMP formation in hMOPr HEK cells (10 um)” value (“% inhibition … (10 um)” below) is 0%.

B2: H-fVvF-OH (peptide)
peptide: H-[dF]V[dV]F-OH
With B2, the “% inhibition … (10 um)” value in assay [3] was found to be 0%.

B3: H-FGGy-NH2 (peptide)
peptide: H-FGG[dY]-NH2
SMILES: NC(=O)[C@@H](Cc1ccc(O)cc1)NC(=O)CNC(=O)CNC(=O)[C@@H](N)Cc1ccccc1
Consider B3, for which the “% inhibition … (10 um)” value in assay [3] stood at 0%.

B4: H-FVvf-OH (peptide)
peptide: H-FV[dV][dF]-OH
On to B4, for which, in assay [3], the “% inhibition … (10 um)” value worked out at 0%.

B5: H-fVvF-NH2 (peptide)
peptide: FVVF
modifications: D-Phe at 1; D-Val at 3; C-terminal amide
For B5, the “% inhibition … (10 um)” value in assay [3] turned out to be 0%.

B6: H-fvVF-OH (peptide)
peptide: H-[dF][dV]VF-OH
Turning to B6, the “% inhibition … (10 um)” value in assay [3] worked out at 0%.

B7: H-FVvf-NH2 (peptide)
peptide: FVVF
modifications: D-Val at 3; D-Phe at 4; C-terminal amide
For the molecule B7, in assay [3], the “% inhibition … (10 um)” value came out at 0%.

B8: bilaid A (H-FvVf-OH; L-Phe-D-Val-L-Val-D-Phe) (peptide)
peptide: H-F[dV]V[dF]-OH
SMILES: CC(C)[C@H](NC(=O)[C@H](NC(=O)[C@@H](N)Cc1ccccc1)C(C)C)C(=O)N[C@H](Cc1ccccc1)C(=O)O
notes: Natural product of Penicillium sp; MST-MF667; made by Fmoc synthesis for the assays; also called 1a; peptide 1a
As a reminder, the Ki is the dissociation constant of the complex between target and ligand, obtained from inhibition or displacement. For the molecule B8, the Ki in assay [4] is 3100 nM. The “% inhibition … (10 um)” value in assay [3] was 21%.

B9: bilaid C (H-YvVf-OH; L-Tyr-D-Val-L-Val-D-Phe) (peptide)
peptide: YVVF
modifications: D-Val at 2; D-Phe at 4; free C-terminal acid
notes: Natural product of Penicillium sp; MST-MF667; made by Fmoc synthesis; also called 3a; peptide 3a
With B9, the Ki in assay [4] stood at 210 nM. For the same molecule, the “% inhibition … (10 um)” value in assay [3] worked out at 77%.

B10: H-FvVy-NH2 (peptide)
peptide: H-F[dV]V[dY]-NH2
SMILES: CC(C)[C@H](NC(=O)[C@H](NC(=O)[C@@H](N)Cc1ccccc1)C(C)C)C(=O)N[C@H](Cc1ccc(O)cc1)C(N)=O
B10: the “% inhibition … (10 um)” value in assay [3] stood at 0%.

B11: bilaid B (H-FvVy-OH) (peptide)
peptide: H-F[dV]V[dY]-OH
SMILES: CC(C)[C@H](NC(=O)[C@H](NC(=O)[C@@H](N)Cc1ccccc1)C(C)C)C(=O)N[C@H](Cc1ccc(O)cc1)C(=O)O
In the case of B11, the “% inhibition … (10 um)” value in assay [3] was found to be 0%.

B12: H-FGVy-NH2 (peptide)
peptide: H-FGV[dY]-NH2
SMILES: CC(C)[C@H](NC(=O)CNC(=O)[C@@H](N)Cc1ccccc1)C(=O)N[C@H](Cc1ccc(O)cc1)C(N)=O
Take B12: in assay [3], the “% inhibition … (10 um)” value was 0%.
